Data taken from patent publication US5441884.

System: T1, Tn5401 TnpA transposase (Bacillus thuringiensis var. morrisoni EG2158)
T1 sequence: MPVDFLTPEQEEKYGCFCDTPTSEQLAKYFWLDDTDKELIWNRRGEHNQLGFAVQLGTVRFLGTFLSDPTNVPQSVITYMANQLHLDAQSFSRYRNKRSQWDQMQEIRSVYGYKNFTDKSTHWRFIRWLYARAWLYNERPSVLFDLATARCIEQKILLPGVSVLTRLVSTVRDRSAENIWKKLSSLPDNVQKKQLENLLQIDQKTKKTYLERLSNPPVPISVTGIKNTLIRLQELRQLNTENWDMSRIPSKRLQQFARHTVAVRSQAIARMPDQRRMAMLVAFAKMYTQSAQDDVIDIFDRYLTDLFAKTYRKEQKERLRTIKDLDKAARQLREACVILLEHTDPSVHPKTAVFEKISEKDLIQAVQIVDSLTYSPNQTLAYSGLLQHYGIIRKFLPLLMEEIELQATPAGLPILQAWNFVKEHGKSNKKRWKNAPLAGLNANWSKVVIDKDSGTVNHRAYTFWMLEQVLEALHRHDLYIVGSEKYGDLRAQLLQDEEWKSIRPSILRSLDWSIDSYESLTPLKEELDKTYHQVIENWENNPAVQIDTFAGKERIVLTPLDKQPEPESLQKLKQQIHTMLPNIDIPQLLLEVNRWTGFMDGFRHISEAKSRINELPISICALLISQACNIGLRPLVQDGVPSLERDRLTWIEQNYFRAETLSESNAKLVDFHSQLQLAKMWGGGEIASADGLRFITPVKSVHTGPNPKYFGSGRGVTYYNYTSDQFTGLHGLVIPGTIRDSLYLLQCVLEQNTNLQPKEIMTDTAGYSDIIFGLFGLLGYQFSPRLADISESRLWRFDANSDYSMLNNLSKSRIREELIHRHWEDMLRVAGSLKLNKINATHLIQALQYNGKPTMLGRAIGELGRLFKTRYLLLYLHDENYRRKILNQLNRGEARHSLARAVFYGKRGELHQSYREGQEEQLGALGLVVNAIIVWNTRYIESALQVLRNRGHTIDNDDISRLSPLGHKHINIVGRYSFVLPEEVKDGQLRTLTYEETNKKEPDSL
Test: cell_activity
Settings: pEG922 in plasmid-free B.t. EG7566; 10^-1 to 10^-2 in a plasmid-containing strain; functional transposition, binding not measured directly

Tn5401 transposon with 53 bp terminal inverted repeats
activity (transposition frequency): 0.0001
